The record followed here is patent US20070020258A1 (published 2007).

In experiment [1] the target is T1, human IgE (ND and PS allotypes) (human, UniProt P01854-1 1-428, tracer iodinated with 125I (chloramine T)).
T1 construct: IgE used for the Scatchard Kd; also called 125I IgE; unlabelled IgE
Put plainly: 125I-IgE equilibrium binding, Scatchard. The method, then: e. Scatchard analysis was performed utilizing a Fortran program (scanplot) based on the Ligand program written by P. Munson at NIH. Scatplot uses a mass action equation fitting bound as a function of total using the Rodbard type regression analysis.

Experiment [2] has as its target T2, human IgE purified from U266B1 cells (human, UniProt P01854-1 1-428).
T2 construct: domain: Fcε4; Whole IgE; its X residues are spacers that keep Kabat numbering and are not part of the protein; also called U266 IgE; U266 IgE standard
Put plainly: IgE/FcεRI inhibition ELISA. Here is the method:
A 96-well assay plate (Manufn Nunc.) was coated with 0.05 ml of the FcεRI alpha chain IgG1 chimeric receptor in 1 μg/ml coating buffer ([…] carbonate/bicarbonate, pH 9.6). Assay was done for 12 hours at 4-8° C. The wells were aspirated and 250 μl blocking buffer (PBS-1% BSA pH 7.2) was added and incubated for one hour at 4° C. […] The FcεRI-coated wells were washed three times with PBS-0.05% Tween20, and then 50 μl from the sample wells were transferred and incubated with agitation for 30 minutes at 25° C. 50 μl/well of streptavidin-HRP diluted 1:5000 in assay buffer was incubated for 15 minutes with agitation and then the plate was washed as before. 50 μl/well of Microwell peroxidase substrate (Kirkgaard & Parry Laboratories) was added and color was developed for 30 minutes.
(In general: In an ELISA, binding on a coated surface is turned into a signal by an enzyme label.)

T1 sequence (P01854 other isoform, or with tags, fused parts or gaps): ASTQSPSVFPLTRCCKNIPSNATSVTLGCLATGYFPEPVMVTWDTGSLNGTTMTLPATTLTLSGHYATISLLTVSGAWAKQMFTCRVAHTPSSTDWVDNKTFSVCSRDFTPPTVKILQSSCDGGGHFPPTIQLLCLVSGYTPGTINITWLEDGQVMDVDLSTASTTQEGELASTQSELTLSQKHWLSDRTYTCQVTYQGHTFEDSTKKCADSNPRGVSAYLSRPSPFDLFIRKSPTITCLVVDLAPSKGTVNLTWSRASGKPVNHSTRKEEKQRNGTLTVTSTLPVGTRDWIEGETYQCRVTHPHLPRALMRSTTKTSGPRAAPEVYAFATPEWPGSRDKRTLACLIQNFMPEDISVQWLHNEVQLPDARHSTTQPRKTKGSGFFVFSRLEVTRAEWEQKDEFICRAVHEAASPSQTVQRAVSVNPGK
T2 sequence (P01854 other isoform, or with tags, fused parts or gaps): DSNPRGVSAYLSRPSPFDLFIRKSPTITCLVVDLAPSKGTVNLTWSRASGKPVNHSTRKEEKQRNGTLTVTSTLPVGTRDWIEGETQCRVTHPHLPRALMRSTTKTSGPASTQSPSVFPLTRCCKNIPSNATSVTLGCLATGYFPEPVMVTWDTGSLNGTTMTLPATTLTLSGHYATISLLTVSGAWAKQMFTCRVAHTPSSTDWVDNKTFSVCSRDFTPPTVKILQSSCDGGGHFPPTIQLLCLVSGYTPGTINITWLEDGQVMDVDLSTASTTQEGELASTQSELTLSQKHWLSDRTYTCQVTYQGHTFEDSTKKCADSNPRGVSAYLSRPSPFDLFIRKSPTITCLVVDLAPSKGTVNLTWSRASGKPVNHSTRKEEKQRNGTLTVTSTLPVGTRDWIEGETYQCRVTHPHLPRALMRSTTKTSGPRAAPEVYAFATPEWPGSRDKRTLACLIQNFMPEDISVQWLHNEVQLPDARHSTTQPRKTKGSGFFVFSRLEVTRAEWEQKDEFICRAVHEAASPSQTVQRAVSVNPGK

B1: MAE15 (antibody, V domains shown)
VH: DVQHQESEPDLVKPSQSLSLTCTVTGYSITSGYNRHWIRQFPGNKLEWMGYIHYSGSTNYNPSLKRRISITRDTSKNQFFLQLNSVTTEDTATYYCARGSIYYYGSRYRYFDVWGAGTTVTVSS
VL: DIQLTQSPASLAVSLGQRATISCKASQSVDYDGDSYMNWYQQKPGQPPKLLIYAASNLESGIPARFSGSGSGTDFTLNIHPVEEEDAATYYCQQSNEDPFTFGAGT
notes: murine IgG1
By Kd is commonly meant the concentration at which binding is half-saturated. Low readings indicate higher affinity, high ones lower affinity. Take B1: the Kd in experiment [1] was 70 nM.

B2: MAE11 (antibody, V domains shown)
VH: DVQLQESGPGLVKPSQSLSLACSVTGYSITSGYSWNWIRQFPGNKLEWMGSITYDGSSNYNPSLKNRISVTRDTSQNQFFLKLNSATAEDTATYYCARGSHYFGHWHFAVWGAGTTVTVSS
VL: DIVLTQSPASLAVSLGQRATISCKASQSVDYDGDSYMNWYQQKPGQPPILLIYAASYLGSEIPARFSGSGSGTDFTLNIHPVEEEDAATFYCQQSHEDPYTFGAGTKLEIK
notes: murine IgG1
On to B2, for which the affinity in experiment [1], expressed as Kd, was 30 nM. Moreover, in experiment [2], the “ratio Var. X / IgL1H1” value was 0.06 and the “ratio Var. X / MaE11” value turned out to be 1.

B3: MAE13 (antibody, V domains shown)
VH: DVQLQESGPGLVKPSQSLSLTCTVTGYTITSDNAWNWIRQFPGNKLEWMGYINHSGTTSYNPSLKSRISITRDTSKNQFFLQLNSVTTEDTATYYCAWVVAYAMDYWGQGTSVTVSS
VL: DIVMTQSQKFMSTSVGDRVSVTCKASQNVSSNVAWYQQKPGQSPKALIYSASYRYSGVPDRFTGSGSGTDFTLTISNVQSEDLAEYFCQQYYTYPLYTFGGGTKLEIKR
notes: murine IgG1
In experiment [1], B3 showed a Kd of 50 nM.
